In a protein production outcome set (Wang et al. 2014):

Assay: label from the status in PepcDB records

| Sequence | protein production |
| --- | --- |
| MEALKIALLGGGTVGSAFYNLVLERAEELSAFGVVPRFLGVLVRDPRKPRAIPQELLRAEPFDLLEADLVVEAMGGVEAPLRLVLPALEAGIPLITANKALLAEAWESLRPFAEEGLIYHEASVMAGTPALSFLETLRGSELLELHGILNGTTLYILQEMEKGRTYAEALLEAQRLGYAEADPTLDVEGIDAAHKLTLLARLLVDPGFPFAEVEAQGIARLTPEVLQKAEARGERVRLVASLFGEGGRWRAAVAPRRLPQDHPLARARGNALWVRARPLGEAFVTGPGAGGGATASGLFADLLRFLSGAPGHLPAPRARPPLEEGSPWPGVE | failed |
| MEALRLGFSPCPNDTFIFYALVHGRVESPVPLEPVLEDVETLNRWALEGRLPLTKLSYAAYAQVRDRYVALRSGGALGRGVGPLVVARGPLQALEGLRVAVPGRHTTAYFLLSLYAQGFVPVEVRYDRILPMVAQGEVEAGLIIHESRFTYPRYGLVQVVDLGAWWEERTGLPLPLGAILARRDLGEGLIRALDEAVRRSVAYALAHPEEALDYMRAHAQELSDEVIWAHVHTYVNAFSLDVGEEGERAVARLFAEAEARGLAAPSPRPLFV | not failed |
| MEATKERMEKDQKKRVVTNEAGKAEDNTIRTIIRESIVEDRGSNDDDGNKDNDHGASKPEDILAFSRTVRKIDSSLE | failed |
| MECGVFHTPYMRPGRKDKDTFEYSLLLAAACDKFGYRDFMVGEHGMQAWENIPNPELLIVAAAQITERMRFAPMAHIVPLHNPSTLAIQIGYTSQLLEDRYFLGVGAGSWENEAVLRGQPGDLSEAHPRLMEGLEVMDKVWRQEPFDFEGKYYKAARLDGQIDPGSVASHGEFKVKDGEEYHLTADHSPHGGADGLEIAVTGLSKNSPSHRLAGERGWTPISFYGGSALLRSQWDTYSEAVRSIGGTPQGSRFKIARDVFVAKTDEEAKEKAKNGALGLAWQKYLMPVYQKYRILQGFIDDADHKVDIDDVDLDYLADNVWLCGSPDTVIEKIEKTFDLAGFRYGQLAVNTHDAMDDPEPWIESLRLFATEVVPNVPVEGTHETVAVG | failed |
| MEDEIKSFAKDRKLIIEDSKNSKNNIVEVQKAIETLKDEKNAKNVVVDFTEYNPLHNGHKYCMDFGKREGLFISVIPGPLERSGRGIPYLVNRYIRSEMALLAGADLVVEGPPMGIMGSGQYMQCLIKIFSALNGDIIPRGYIEEETMEKVINSINNKNHIKIKPYNISCIETGEKFGEKLEIDNYVIASMSYTIYKLKENFPEWKPKFKFIERIEGISGTKIREGVFNNNFESIKHMLPETTLNVFKSFENNLSEIILKRNEQMVLDTVNNFDLSKYLPENISEKLNEKEYYKSIEEIKECIPRGFSKNNIERTISKLEARIEKETISKYIENYPANLKILKGINNNE | failed |
| MEDFWVQYGDEMLPVIGDFPRKGDYLPSFMLVDDQKHDAALESFSHTPKLIVTLLSVDEDEHAGLLLLRETRRFLDSWPHLKLIVITVDSPSSLARARHEHGLPNIALLSTLRGRDFHKRYGVLITEYPLSGYTSPAIILADAANVVHYSERLANTRDFFDFDAIEKLLQEGEQQAMAAEREAAEARQEQDAEREKGTERLLEKAKLIQDQLNRNGDPGR | not failed |
| MEDKFANLSLHEKTGKSSIQLNEQTGSDNGSAVKRTSSTSSHYNNINADLHARVKAFQEQRALKRSASVGSNQSEQDKGSSQSPKHIQQIVNKPLPPLPVAGSSKVSQRMSSQVVQASSKSTLKNVLDNQETQNITDVNINIDTTKITATTIGVNTGLPATDITPSVSNTASATHKAQLLNPNRRAPRRPLSTQHPTRPNVAPHKAPAIINTPKQSLSARRAVKLPPGGMSLKMPTKTAQQPQQFAPSPSNKKHIETLSNSKVVEGKRSNPGSLINGVQSTSTSSSTEGPHDTVGTTPRTGNSNNSSNSGSSGGGGLFANFSKYVDIKSGSLNFAGKLSLSSKGIDFSNGSSSRITLDELEFLDELGHGNYGNVSKVLHKPTNVIMATKEVRLELDEAKFRQILMELEVLHKCNSPYIVDFYGAFFIEGAVYMCMEYMDGGSLDKIYDESSEIGGIDEPQLAFIANAVIHGLKELKEQHNIIHRDVKPTNILCSANQGTVKLCDFGVSGNLVASLAKTNIGCQSYMAPERIKSLNPDRATYTVQSDIWSLGLSILEMALGRYPYPPETYDNIFSQLSAIVDGPPPRLPSDKFSSDAQDFVSLCLQKIPERRPTYAALTEHPWLVKYRNQDVHMSEYITERLERRNKILRERGENGLSKNVPALHMGGL | failed |
| MEDKPLGILRVHVKRGINLAIRDATTSDPYVVITLANQKLKTRVINNNCNPVWNEQLTLSIKDVNDPIRLTVFDKDRFSGDDKMGDAEIDFRPFLEAHQMELDFQKLPNGCAIKRIRPGRTNCLAEESSITWSNGKIMQEMILRLKNVECGEVELMLEWTDGPGCKGLGREGSKKTPWMPTKRLD | failed |
| MEDLERRQRSQVKTHEVQAHGRISRLIPAEDFGIIETPEGREIYFHRHSVVNSDFDRLTVGTAVRFAEEMGEEGPQASSVRVEGKHHLIGLEHHHHHH | not failed |
| MEDQGVLAGFFALSFAFILVILIWAIISYLLTAFALYSMAKNDGATDGVLAFIPFLNSKTWGDLAKDKLPDFLKEEAGWKVFGIYVACFIFNFVPIISLLATAVSIVLSIYLIYAILDRYGTNSILFTIIHVITFSVFLPIHLFIIRNEPVRYKE | failed |
| MEDVKGKEIIDDAPIDNKVSDEMESEENAIKKKYGGLLPKKIPLISKDHERAFFDSADWALGKQKGQKPKGPLEALRPKLQPTPQQQPRARRMAYSSGETEDTEIDNNEAPDDQACASAVDSTNLKDDGGAKDNIKS | failed |
| MEEELQHSHCVNCVSRRCMTRPEPGISCDLIGCPLVCGAVFHSCKADEHRLLCPFERVPCLNSDFGCPFTMARNKVAEHLEMCPASV | not failed |
| MEEEMKKKVSRGELGGEAQNCPRCESPNTKFCYYNNYSLSQPRYFCKSCRRYWTKGGTLRNVPVGGGCRRNKRSSSSAFSKNNNNKSINFHTDPLQNPLITGMPPSSFGYDHSIDLNLAFATLQKHHLSSQATTPSFGFGGDLSIYGNSTNDVGIFGGQNGTYNNSLCYGFMSGNGNNNQNEIKMASTLGMSLEGNERKQENVNNNNNNSENPSKVFWGFPWQMTGDSAGVVPEIDPGRESWNGMVSSWNNGLLNTPLV | not failed |
| MEEGGDFDNYYGADNQSECEYTDWKSSGALIPAIYMLVFLLGTTGNGLVLWTVFRSSREKRRSADIFIASLAVADLTFVVTLPLWATYTYRDYDWPFGTFFCKLSSYLIFVNMYASVFCLTGLSFDRYLAIVRPVANARLRLRVSGAVATAVLWVLAALLAMPVMVLRTTGDLENTTKVQCYMDYSMVATVSSEWAWEVGLGVSSTTVGFVVPFTIMLTCYFFIAQTIAGHFRKERIEGLRKRRRLLSIIVVLVVTFALCWMPYHLVKTLYMLGSLLHWPCDFDLFLMNIFPYCTCISYVNSCLNPFLYAFFDPRFRQACTSMLCCGQSRCAGTSHSSSGEKSASYSSGHSQGPGPNMGKGGEQMHEKSIPYSQETLVVD | not failed |
| MEEINKYIQNSSETGGEIYNLIEELFPICRSITGNGVRKTMDIIRKHIPLEIHEVKSGTKVFDWTVPKEWNIKDAYVRNSKGEKVIDFKENNLHVMSYSVPVHKTMTLDELKPYLHTIPGNKDRIPYLTSYYKENWGFSLTQNKFDELCDDDYEVVIDSSLEDGSLTYGEYYIRGELEEEILLTTYTCHPSMCNDNLSGVALITFIAKALSKLKTKYSYRFLFAPETIGSITWLSRNEDKLKNIKMGLVATCVGDAGIKNYKRTKFGDAEIDKIVEKVLMHCGSEYYVADFFPWGSDERQFSSPGINLSVGSLMRSCYGFDGYHTSADNLCYMNKDGLADSYKTYLEVIYTIENNRTYLNLNPKCEPQLGKRGIYRMIGGGSDYPFDEFAMFWVLNMSDGKNSLLDIAYKSGMEFRRIKYAADALYRVELLKLV | not failed |
| MEEITEGVNNMNLAVDTQKKNRIQVSNTKKPLFFYVNLAKRYMQQYTDVELSALGMAIATVVTVAEILKNNGFAVEKKIMTSTVDIKDDSRGRPVQKAKIEITLAKSEKFDELMAAANEEKEAAEAQEQN | failed |
| MEEKKIVELEKQVEDYRQFGFVLLSLSIFLFIGLVLPPSYAPQVAAEWLIAGIGGALTFAWLFNRKVVQCQQKLFEEEDQQ | failed |
